Measured values reported in patent US20150118213A1 (OMRIX BIOPHARMACEUTICALS, published 2015).
Bridges are numbered along the chain shown (N, C = ends). Where no end group is shown, it is not given here.

T1: Fluorescein-labeled cyclic gamma-loop derived peptide (disulfide 1-12; also: fluorescein label, site not given here)
T1 construct: also called fluorescent gamma loop peptide
T1 peptide: CKETWTANVGKC

B1: Thr_111 (peptide)
peptide: ISMLEKIYIHPRYNW
notes: 15-mer from the thrombin derived peptide array
B2: Thr_031_CS (peptide)
peptide: NITRSGIESQLWRSR
notes: Thrombin derived 15-mer in which Cysteine residues have been replaced by Serine
B3: Thr_136_CS (peptide)
peptide: RIRITDNMFSAGYKP
notes: as for B2
B4: Thr_069 (peptide)
peptide: WCYVAGKPGDFGYCD
notes: 15-mer from the thrombin derived peptide array; also called thrombin derived peptide Thr-069
B5: Thr_032_CS (peptide)
peptide: SGIESQLWRSRYPHK
notes: as for B2
B6: Rnd_inter_155 (peptide)
peptide: SHNQRFVTYLGSKLG
notes: 15-mer from the random peptide array; also called Rnd155; Random2
B7: Rnd_inter_316 (peptide)
peptide: LGNKKFVSGSRFVST
notes: 15-mer from the random peptide array; also called Rnd316; Rnd 316

biological target: thrombin (aqueous liquid purified and concentrated thrombin) (UniProt P00734 44-622; P00734 44-622); assay: cell-based or functional assay

| inhibition of thrombin clotting activity at 0.5 mM peptide [%] | Binder |
| --- | --- |
| ~7 | CKETWTANVGKC (disulfide 1-12) [cyclic gamma peptide] |
| ~20 | KETWTANVGK [linear gamma peptide (SEQ ID NO:1)] |

Biological target: T1, Fluorescein-labeled cyclic gamma-loop …
Assay: peptide microarray, immobilised 15-mer probed with fluorescein-labelled cyclic gamma-loop peptide; fluorescence scale 0-65535
Text: Peptides were synthesized using SPOT synthesis (Wenschuh H, et al. (2000). Coherent membrane supports for parallel microsynthesis and screening of bioactive peptides. Biopolymers 55:188-206) and were chemoselectively immobilized onto functionalized glass slides as described (Panse S, et al. (2004) Profiling of generic anti-phosphopeptide antibodies and kinases with peptide microarrays using radioactive and fluorescence-based assays. Mol Divers 8:291-299.2.). Each peptide was printed in triplicates onto the microarray. For binding studies, 100 ng of purified thrombin (Omrix biopharmaceuticals) were directly labeled with DyLight 650 (DyLight® Microscale Antibody Labeling Kits, Thermo Scientific, #84536) and diluted in blocking buffer (SuperBlockT20 (TBS) Blocking Buffer, Thermo Scientific, #37536). The microarrays were incubated with 10 μg/ml DyLight 650-Thrombin or a Fluorescein-labeled cyclic gamma-loop derived peptide for one hour at 30° C. in a HS4800 microarray processing station (Tecan) (Masch A, et al., (2010) Antibody signatures defined by high-content peptide microarray analysis. Methods Mol Biol 669:161-172).
Microarrays were washed with 0.1% Tween-20 in 1×TBS followed by 0.05% Tween-20 in 0.1×SSC and dried in a stream of nitrogen. Each microarray was scanned using GenePix Autoloader 4200AL (Molecular Devices, Pixel size: 10 μm). Signal intensities were evaluated using spot recognition software Genepix Pro 7.0 analysis software (Molecular Devices). For each peptide, the mean signal intensity of the three triplicates was extracted. Further evaluation and representation of results was performed using the statistical computing and graphics software R (Version 2.11.1, www.r-project.org).
One array included peptides based on the thrombin sequence. Any peptide isolated from this library may reflect possible regions in the thrombin protein that may interact with the gamma loop. […] The fluorescence for the strongest binding candidates (hits) was quantified on an arbitrary scale of 0-65535 (2¹⁶). Thrombin activity was assessed as described in Example 1.

| Binding intensity of gamma loop [arbitrary units] | Binder |
| --- | --- |
| 32800 | B1 |
| 40800 | B2 |
| 25300 | B3 |
| 50600 | B4 |
| 35100 | B5 |
| 19500 | B6 |
| 26600 | B7 |
